Data from paper PMC10213050 (Nature Communications, 2023).

T1: GST-Srs2 (yeast (Saccharomyces cerevisiae), UniProt P12954 1-1174)
T1 construct: Srs2 helicase, yeast; also called recombinant GST-Srs2
T1 sequence (looked up): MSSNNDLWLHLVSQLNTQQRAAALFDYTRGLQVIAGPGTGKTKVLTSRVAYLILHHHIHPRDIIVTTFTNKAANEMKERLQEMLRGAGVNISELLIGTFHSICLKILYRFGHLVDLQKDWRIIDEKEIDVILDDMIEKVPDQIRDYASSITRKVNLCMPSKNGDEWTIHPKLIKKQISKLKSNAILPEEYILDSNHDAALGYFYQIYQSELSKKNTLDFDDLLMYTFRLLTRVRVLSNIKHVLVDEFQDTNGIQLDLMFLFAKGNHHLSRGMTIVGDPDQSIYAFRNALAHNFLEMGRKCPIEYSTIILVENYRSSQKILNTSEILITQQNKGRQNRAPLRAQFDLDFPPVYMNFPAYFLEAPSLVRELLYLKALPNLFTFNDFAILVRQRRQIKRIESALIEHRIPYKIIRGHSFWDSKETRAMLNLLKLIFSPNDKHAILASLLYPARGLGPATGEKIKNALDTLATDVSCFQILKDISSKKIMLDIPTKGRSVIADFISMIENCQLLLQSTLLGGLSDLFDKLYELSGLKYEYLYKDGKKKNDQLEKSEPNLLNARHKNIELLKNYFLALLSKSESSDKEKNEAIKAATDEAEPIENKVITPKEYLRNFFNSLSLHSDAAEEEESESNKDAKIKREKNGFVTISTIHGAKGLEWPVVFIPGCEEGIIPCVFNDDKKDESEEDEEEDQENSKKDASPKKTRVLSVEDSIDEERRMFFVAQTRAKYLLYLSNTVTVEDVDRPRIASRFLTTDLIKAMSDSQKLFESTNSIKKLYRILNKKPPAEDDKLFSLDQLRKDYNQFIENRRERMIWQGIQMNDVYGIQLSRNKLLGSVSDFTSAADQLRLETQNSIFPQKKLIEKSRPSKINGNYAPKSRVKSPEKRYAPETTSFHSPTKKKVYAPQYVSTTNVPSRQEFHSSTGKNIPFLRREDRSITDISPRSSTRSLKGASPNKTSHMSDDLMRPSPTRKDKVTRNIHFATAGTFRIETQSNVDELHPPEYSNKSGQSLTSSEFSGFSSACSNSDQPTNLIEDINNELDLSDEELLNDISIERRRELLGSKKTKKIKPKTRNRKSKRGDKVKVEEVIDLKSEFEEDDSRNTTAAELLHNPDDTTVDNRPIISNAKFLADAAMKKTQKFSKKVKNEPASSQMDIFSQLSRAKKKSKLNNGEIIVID

T2: GST-Bre1 (yeast (Saccharomyces cerevisiae), UniProt Q07457 1-700)
T2 construct: Bre1, yeast ubiquitin E3 ligase; RBD 1-210, linker 211-614, RING 615-700; also called GST-tagged WT Bre1; recombinant GST-Bre1
T2 sequence (looked up): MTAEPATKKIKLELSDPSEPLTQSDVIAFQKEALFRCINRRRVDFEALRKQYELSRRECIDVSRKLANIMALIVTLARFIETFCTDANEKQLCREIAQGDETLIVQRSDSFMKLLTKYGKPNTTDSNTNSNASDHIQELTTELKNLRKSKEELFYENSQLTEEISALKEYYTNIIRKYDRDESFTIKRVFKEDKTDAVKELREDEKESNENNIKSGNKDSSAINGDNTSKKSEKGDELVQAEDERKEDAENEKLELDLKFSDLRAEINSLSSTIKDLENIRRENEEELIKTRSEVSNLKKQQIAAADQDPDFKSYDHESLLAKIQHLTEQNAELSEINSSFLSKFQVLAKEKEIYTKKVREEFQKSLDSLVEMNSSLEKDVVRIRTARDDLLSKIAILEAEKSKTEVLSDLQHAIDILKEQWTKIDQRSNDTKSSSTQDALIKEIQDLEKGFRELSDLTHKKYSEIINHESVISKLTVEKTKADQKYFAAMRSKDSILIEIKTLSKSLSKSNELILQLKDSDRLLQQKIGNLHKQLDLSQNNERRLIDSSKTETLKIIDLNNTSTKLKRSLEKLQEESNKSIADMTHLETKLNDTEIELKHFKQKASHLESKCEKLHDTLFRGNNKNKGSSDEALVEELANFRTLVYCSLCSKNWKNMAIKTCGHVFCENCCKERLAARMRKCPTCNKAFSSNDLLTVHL

T3: GST-tagged truncated Bre1 1-504 aa (yeast (Saccharomyces cerevisiae), UniProt Q07457 1-504)
T3 construct: source: recombinant, GST-tagged
T3 sequence (looked up): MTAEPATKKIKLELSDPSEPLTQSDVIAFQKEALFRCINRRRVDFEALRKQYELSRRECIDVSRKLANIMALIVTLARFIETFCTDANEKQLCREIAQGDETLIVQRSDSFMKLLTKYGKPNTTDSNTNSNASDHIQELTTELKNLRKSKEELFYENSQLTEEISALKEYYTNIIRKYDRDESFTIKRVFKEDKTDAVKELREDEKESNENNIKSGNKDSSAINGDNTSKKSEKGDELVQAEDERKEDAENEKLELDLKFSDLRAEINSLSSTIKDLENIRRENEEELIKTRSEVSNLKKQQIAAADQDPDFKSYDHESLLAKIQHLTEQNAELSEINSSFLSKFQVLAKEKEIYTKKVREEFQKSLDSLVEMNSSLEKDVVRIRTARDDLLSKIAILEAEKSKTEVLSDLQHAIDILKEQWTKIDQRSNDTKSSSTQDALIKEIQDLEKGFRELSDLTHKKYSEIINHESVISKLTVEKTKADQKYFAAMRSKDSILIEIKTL

T4: 6xHis-Bre1 (yeast (Saccharomyces cerevisiae), UniProt Q07457 1-700)
T4 construct: Bre1, yeast ubiquitin E3 ligase; also called WT Bre1; wild-type Bre1; source: E. coli BL21 (DE3), purified (Ni-NTA)
T4 sequence (looked up): T2 sequence (looked up)

B1: 6xHis-hRad51 (natural protein, human, UniProt Q06609 1-339, looked up)
chain: MAMQMQLEANADTSVEEESFGPQPISRLEQCGINANDVKKLEEAGFHTVEAVAYAPKKELINIKGISEAKADKILAEAAKLVPMGFTTATEFHQRRSEIIQITTGSKELDKLLQGGIETGSITEMFGEFRTGKTQICHTLAVTCQLPIDRGGGEGKAMYIDTEGTFRPERLLAVAERYGLSGSDVLDNVAYARAFNTDHQTQLLYQASAMMVESRYALLIVDSATALYRTDYSGRGELSARQMHLARFLRMLLRLADEFGVAVVITNQVVAQVDGAAMFAADPKKPIGGNIIAHASTTRLYLRKGRGETRICKIYDSPCLPEAEAMFAINADGVGDAKD
notes: human Rad51 recombinase; also called recombinant hRad51; source: E. coli BL21 (DE3), purified (Ni-NTA)
B2: 6xHis-tagged Bre1 truncation 1-501 aa (domain or fragment, yeast (Saccharomyces cerevisiae), UniProt Q07457 1-501, looked up)
chain: MTAEPATKKIKLELSDPSEPLTQSDVIAFQKEALFRCINRRRVDFEALRKQYELSRRECIDVSRKLANIMALIVTLARFIETFCTDANEKQLCREIAQGDETLIVQRSDSFMKLLTKYGKPNTTDSNTNSNASDHIQELTTELKNLRKSKEELFYENSQLTEEISALKEYYTNIIRKYDRDESFTIKRVFKEDKTDAVKELREDEKESNENNIKSGNKDSSAINGDNTSKKSEKGDELVQAEDERKEDAENEKLELDLKFSDLRAEINSLSSTIKDLENIRRENEEELIKTRSEVSNLKKQQIAAADQDPDFKSYDHESLLAKIQHLTEQNAELSEINSSFLSKFQVLAKEKEIYTKKVREEFQKSLDSLVEMNSSLEKDVVRIRTARDDLLSKIAILEAEKSKTEVLSDLQHAIDILKEQWTKIDQRSNDTKSSSTQDALIKEIQDLEKGFRELSDLTHKKYSEIINHESVISKLTVEKTKADQKYFAAMRSKDSILIEI
notes: source: recombinant, 6xHis-tagged
B3: GST-RNF20N (domain or fragment, human, UniProt Q5VTR2 1-300, looked up)
chain: MSGIGNKRAAGEPGTSMPPEKKAAVEDSGTTVETIKLGGVSSTEELDIRTLQTKNRKLAEMLDQRQAIEDELREHIEKLERRQATDDASLLIVNRYWSQFDENIRIILKRYDLEQGLGDLLTERKALVVPEPEPDSDSNQERKDDRERGEGQEPAFSFLATLASSSSEEMESQLQERVESSRRAVSQIVTVYDKLQEKVELLSRKLNSGDNLIVEEAVQELNSFLAQENMRLQELTDLLQEKHRTMSQEFSKLQSKVETAESRVSVLESMIDDLQWDIDKIRKREQRLNRHLAEVLERVN
notes: also called N-terminal fragment RNF20N (1-300 aa)
B4: 6xHis-Rad51 (natural protein, yeast (Saccharomyces cerevisiae), UniProt P25454 1-400, looked up)
chain: MSQVQEQHISESQLQYGNGSLMSTVPADLSQSVVDGNGNGSSEDIEATNGSGDGGGLQEQAEAQGEMEDEAYDEAALGSFVPIEKLQVNGITMADVKKLRESGLHTAEAVAYAPRKDLLEIKGISEAKADKLLNEAARLVPMGFVTAADFHMRRSELICLTTGSKNLDTLLGGGVETGSITELFGEFRTGKSQLCHTLAVTCQIPLDIGGGEGKCLYIDTEGTFRPVRLVSIAQRFGLDPDDALNNVAYARAYNADHQLRLLDAAAQMMSESRFSLIVVDSVMALYRTDFSGRGELSARQMHLAKFMRALQRLADQFGVAVVVTNQVVAQVDGGMAFNPDPKKPIGGNIMAHSSTTRLGFKKGKGCQRLCKVVDSPCLPEAECVFAIYEDGVGDPREEDE
notes: Rad51 recombinase, yeast; also called 6xHis-tagged Rad51; yeast Rad51; source: E. coli BL21 (DE3), purified (Ni-NTA)

What was measured:
Settings in all cases: both partners purified
GST-RNF20 = target: T5, GST-RNF20 (human, UniProt Q5VTR2 1-975); assay: pull-down; GST-tagged Bre1 (WT, truncated or mutant) or GST-RNF20 on glutathione agarose beads, incubated with 6xHis-tagged Rad51, hRad51 or FBH1 at 4 °C for 4 h; wash 20 mM Tris-HCl pH 7.4, 200 mM NaCl; Western blot or Coomassie
T5 construct: RNF20, human homolog of Bre1; an asterisk marks the full-length band on the gel; also called full-length GST-RNF20

GST-Srs2 = target: T1, GST-Srs2; assay: pull-down; GST-Srs2 on beads with 6xHis-tagged WT, truncated or mutated Bre1; detected by Western blot with an anti-His antibody; whether ssDNA was included is not told
6xHis-hRad51 = target: B1; assay: pull-down; ssDNA pull-down: 5'-biotinylated 90-nt ssDNA on streptavidin magnetic beads, yeast or human Rad51 bound first, then Bre1 or RNF20N added; 37 °C; 42 mM Tris-HCl pH 7.5, 15 mM KCl, 90 mM NaCl, 2 mM ATP; Bre1 or RNF20N alone did not bind the ssDNA
GST-Bre1 = target: T2, GST-Bre1; assay: pull-down; GST-tagged Bre1 (WT, truncated or mutant) or GST-RNF20 on glutathione agarose beads, incubated with 6xHis-tagged Rad51, hRad51 or FBH1 at 4 °C for 4 h; wash 20 mM Tris-HCl pH 7.4, 200 mM NaCl; Western blot or Coomassie
[1] = target: T3, GST-tagged truncated Bre1 1-504 aa; assay: as above
6xHis-Bre1 = target: T4, 6xHis-Bre1; assay: pull-down; ssDNA pull-down: 5'-biotinylated 90-nt ssDNA on streptavidin magnetic beads, yeast or human Rad51 bound first, then Bre1 or RNF20N added; 37 °C; 42 mM Tris-HCl pH 7.5, 15 mM KCl, 90 mM NaCl, 2 mM ATP; Bre1 or RNF20N alone did not bind the ssDNA

Binder: B1
- binding result (GST-RNF20): binds

Binder: B2
- binding result (GST-Srs2): binds

Binder: B3
- binding result (6xHis-hRad51): binds

Binder: B4
- binding result (GST-Bre1): binds
- binding result [1]: binds
- binding result (6xHis-Bre1): binds
